Results: PMC5727402, “Structure of the large terminase from a hyperthermophilic virus reveals a unique mechanism for oligomerization and ATP hydrolysis” (Nucleic Acids Research, 2017)
“And” between values parts separate entries of the source, which are not always exact repeats. Identical values can stand only once. Values belong to the compound of their own block, whether it stands above or below them.

Columns and labels:
[1] = target: T1, full-length D6E large terminase (1–427) (synthetic construct, UniProt Z9WCS4P2M6); assay: thermal shift assay (SYPRO Orange); format: binding; conditions: 5 mM nucleotide, 5 mM MgCl2, 5 mM HEPES pH 7.5, 5 mM potassium glutamate, 5 μM protein
T1 construct: full length residues 1-427; N-terminal His6-3C tag cleaved; codon-optimized synthetic gene, E. coli BL21-Gold(DE3); monomer by SEC, monomer to pentamer by AUC, active oligomer proposed pentameric
T1 sequence (Z9WCS4P2M6 4-430): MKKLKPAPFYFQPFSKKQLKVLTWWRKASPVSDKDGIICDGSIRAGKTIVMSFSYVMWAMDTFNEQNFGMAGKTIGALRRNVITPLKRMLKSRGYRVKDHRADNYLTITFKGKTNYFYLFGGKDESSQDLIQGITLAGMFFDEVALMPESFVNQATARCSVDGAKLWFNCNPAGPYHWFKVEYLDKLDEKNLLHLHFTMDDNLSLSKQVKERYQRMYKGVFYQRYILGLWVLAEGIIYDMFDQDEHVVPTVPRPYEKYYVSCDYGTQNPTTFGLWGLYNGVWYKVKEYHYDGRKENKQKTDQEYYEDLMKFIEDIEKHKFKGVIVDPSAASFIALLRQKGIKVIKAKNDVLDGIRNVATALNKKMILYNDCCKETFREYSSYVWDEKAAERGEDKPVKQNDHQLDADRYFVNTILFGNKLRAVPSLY

[2] = system: Nc1ncnc2c1ncn2[C@@H]1O[C@H](COP(=O)(O)OP(=O)(O)OP(=O)(O)O)[C@@H](O)[C@H]1O; assay: purified protein; conditions: 10 mM HEPES pH 7.5, 50 mM potassium glutamate, 10 mM MgCl2, room temperature, 4.5 μM protein
[3] = target: D6E large terminase ATPase domain (1–234) (Geobacillus stearothermophilus bacteriophage D6E); assay: SEC; ATPase domain alone (Supplementary Figure S1C); conditions not shown

Compound: Nc1ncnc2c1ncn2[C@@H]1O[C@H](COP(=O)(O)OP(=O)(O)O)[C@@H](O)[C@H]1O [ADP]
ΔTm [1]: 2.3 °C

Compound: Nc1ncnc2c1ncn2[C@@H]1O[C@H](COP(=O)(O)OP(=O)(O)OP(O)(O)=S)[C@@H](O)[C@H]1O [ATP-γ-S]
ΔTm [1]: 7.8 °C

Compound: C-terminally truncated protein (1–417) (synthetic construct)
Km [2]: 196.72 ± 8.0 µM
kcat [2]: 0.0583 ± 0.00067 s⁻¹

stoichiometry N [3]: 4 and 5
Compound: D6E large terminase ATPase domain (1–234) (domain or fragment)
